Experimental data published in patent JP2014195458A (dated 2014).

Columns and labels:
[1] = target: T1, recombinant human interleukin-6 (human, UniProt P05231 30-212); assay: cell-based or functional assay
T1 construct: Recombinant human IL-6 came from several suppliers; also called IL-6; rhIL-6

[2] = target: T1, recombinant human interleukin-6; assay: Luminex-based assay of IL-6 binding to IL-6 receptor
[3] = target: T1, recombinant human interleukin-6; assay: solid-phase ELISA on coated rIL-6 and solid-phase RIA with 125I-rIL-6, hybridoma supernatant

T1 sequence (P05231 30-212 limits assumed): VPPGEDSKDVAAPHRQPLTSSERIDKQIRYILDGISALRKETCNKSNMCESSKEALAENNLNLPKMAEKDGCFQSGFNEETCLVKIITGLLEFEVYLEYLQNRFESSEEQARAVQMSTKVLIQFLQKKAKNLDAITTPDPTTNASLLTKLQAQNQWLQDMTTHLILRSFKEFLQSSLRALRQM

IL−6依存性7TD1細胞増殖バイオアッセイ [1]: 100%
percent inhibition of IL-6 binding to IL-6 receptor [2]: 100%
binding result [3]: binds
B1: mouse anti-IL-6 monoclonal antibody CLB-8 (antibody, V domains shown)
VH: EVQLVESGGKLLKPGGSLKLSCAASGFTFSSFAMSWFRQSPEKRLEWVAEISSGGSYTYYPDTVTGRFTISRDNAKNTLYLEMSSLRSEDTAMYYCARGLWGYYALDYWGQGTSVTVSS
VL: QIVLIQSPAIMSASPGEKVTMTCSASSSVSYMYWYQQKPGSSPRLLIYDTSNLASGVPVRFSGSGSGTSYSLTISRMEAEDAATYYCQQWSGYPYTFGGGTKLEIK
notes: also called CLB-IL6-8; CLB.IL-6/8
IL−6誘発性細胞増殖の阻害 (7TD1 cells, ATP luminescence), EC 50 [1]: 7.2 ng/mL
